Here are results for 102 substances from the supplement of paper PMC12042874.

± gives the uncertainty stated by the source.

The data set in a line: amyloid nucleation score (Sup35N fusion, yeast selection) (log enrichment); library NNK1; higher = more nucleation; inactive = no reads after selection. In outline:
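The nucleation score is the DiMSum log enrichment of output over input reads, centred on the mode score of non-aggregating sequences. Only sequences with 100 or more input reads were scored, using Illumina sequencing of input and output plasmid inserts. Psi-negative yeast expressing Sup35N fused to peptides of 20 random codons were induced 24 hours with 100 μM copper sulfate and grown 7 days at 30°C on medium lacking adenine and uracil.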
The substance PRGVFYCLCYLVTCLAEFYE came in with an amyloid nucleation score of -0.311 ± 0.36. In the case of PRHFVKVIEAPASLLIVYHG, the amyloid nucleation score was -1.02 ± 1.8. On to PRIRSPEMDVMSPPNFLWGL, for which the amyloid nucleation score amounted to 0.213 ± 0.48. For the substance PRKACTIGWLGSINLERGEE, the amyloid nucleation score was -0.681 ± 0.74.

PRLMLYCSLYDIESFIIGRC: the amyloid nucleation score result is “inactive”.

For the substance PRTTMMAINQVLTGTLEASW, the amyloid nucleation score is -1.01 ± 0.95.

In turn, PSALFFSVTLKVHINLAISS had an amyloid nucleation score of 0.431 ± 0.53.

In the case of PSFHICL, the amyloid nucleation score was -0.489 ± 0.41.

In turn, PSGVCSIVVFKCLRRVMSSL yielded an amyloid nucleation score of 0.353 ± 0.35.

PSGWTFSRGLSCDNVSRLSS came in with an amyloid nucleation score of 1.05 ± 0.61.

Consider PSMEWWGL, for which the amyloid nucleation score is 0.158 ± 0.88.

On to PSSYF, for which the amyloid nucleation score is 0.45 ± 0.47. PSTDLWWLGNTLSIGNRIVY registered an amyloid nucleation score of -0.879 ± 0.69. As for PSYLCYVIPPPCINLVPMYP, the amyloid nucleation score was -0.177 ± 0.23. In the case of PTFAADSEGHS, the amyloid nucleation score was 0.085 ± 0.63. The value for PTTFVENIAWRRGSTSCLCG was “inactive”. In the case of PVCGFRRWKCLPN, the amyloid nucleation score turned out to be 0.318 ± 0.66.

In turn, PVFGGNGWLGYGWNWRSHLG had an amyloid nucleation score of 0.383 ± 0.49. PVMFVDSMSVWVLLVCYRR: the amyloid nucleation score is 0.19 ± 0.74. PVQDGSLGCQSHYCSRYCYV returned an amyloid nucleation score of -0.129 ± 0.46.

With PVSDLVIFLQLRFRNTCMLP, the amyloid nucleation score came to 0.952 ± 0.92. In turn, PWQRSSCLGTLVLVTNYDRY yielded an amyloid nucleation score of 0.058 ± 0.44. The result for PWTSHVNFRSSGYLSNCLNF reads -0.145 ± 0.64; that for PWYKSLSRPSGGKTVLLRNM, -0.113 ± 0.43; that for PYDYRI, -0.503 ± 0.46.

Consider PYVGPLMNFYHSMGMWWMYN, for which the amyloid nucleation score result was “inactive”. With QALYSCDDYRGYRTSQCPRS, the amyloid nucleation score was -1.13 ± 1.9. The substance QARSGPTPLTTWRTRQVTLG displayed an amyloid nucleation score of -0.178 ± 0.51. Take QCDVS: the amyloid nucleation score result was “inactive”. QCGEICLCRSAGVVHSPRGW returned an amyloid nucleation score of -0.513 ± 0.55.

QCIPLLAGSYCAQML showed an amyloid nucleation score of 0.914 ± 0.14.

In turn, QCVFYMWVSFEELK had an amyloid nucleation score of 0.418 ± 0.97.

On to QDLICVFMGCVIS, for which the amyloid nucleation score worked out at 7.942 ± 0.044.

Take QFESIGCVEWYMFGIREVFS: the amyloid nucleation score is -0.318 ± 0.47. In turn, QFRICVAPEFFGRKSLRASD registered an amyloid nucleation score of 0.445 ± 1.2.

As to QFSLPLCGYKRRHNGSFAEM, the amyloid nucleation score is -1.14 ± 2.1. Turning to QFYHLYCHKIYCFRGEFRRR, the amyloid nucleation score turned out to be 1.83 ± 0.46.

On to QGAGAGKITVGTVGVGGTEL, for which the amyloid nucleation score entry was “inactive”.

For QGIAACSAGSLDYVYGRWKG, the amyloid nucleation score was determined as 3.91 ± 0.09.

For QGISPLRWAVLYRFMYGCVR, the amyloid nucleation score was -0.209 ± 0.57. The value for QGRGMDNVIYVEVRMRDCRR was 2.04 ± 0.24.

With QGSCCD, the amyloid nucleation score was -0.815 ± 0.86.

QGSDSSNEATTAPLCRLRIW came in with an amyloid nucleation score of 1.11 ± 0.94.

QIAVWPSYFSGDIGDMSRKG yielded an amyloid nucleation score of 0.017 ± 0.56.

QIIPTRFGWFSNRGCVLGSY: the amyloid nucleation score amounted to 1.08 ± 0.38. The substance QIRRGCRYFW gave an amyloid nucleation score of -0.856 ± 1.1. In turn, QIVCGSMWMLDKI gave an amyloid nucleation score of -0.297 ± 0.49. The value for QIYASKWPYEIEFKNFMRVA was 0.247 ± 0.42; that for QIYVIICLMFSDIGMHIAYV was “inactive”. The substance QKSIDLYFEKRHTISTQNR returned an amyloid nucleation score of -0.455 ± 0.56. As to QLEFVWLILTYHEGHYRIGK, the amyloid nucleation score result is “inactive”. In turn, QLPCDRISSDALYRMWGLV displayed an amyloid nucleation score of -1.41 ± 0.91.

QLQTSQRV: the amyloid nucleation score entry was “inactive”. The result for QLRYKIVMHRQSEHKPSLLN reads -0.855 ± 1.5. QLSRSVWRRMRRQQKHPLTG registered an amyloid nucleation score of 1.62 ± 0.81. QLVGFVVPRRSSPGVHTGEC came in with an amyloid nucleation score of 1.21 ± 0.53. Take QMDMCDYERFYLA: the amyloid nucleation score entry is “inactive”. Substance QMDVRDFYSRVSGGGGYQMH registered an amyloid nucleation score of -0.074 ± 0.61. The value for QMLIAGGAKTGTPLFPGASS was 0.358 ± 0.5. QNDLERWAEGQASKMLG had an amyloid nucleation score of 0.433 ± 0.4. On to QNFNFSWVYTFYTRICTLYF, for which the amyloid nucleation score stood at 5.872 ± 0.047. With QNNCSPARPTAHNYVGGHAT, the amyloid nucleation score turned out to be 0.656 ± 1. The value for QNYSLNWSITGLVRLLSRIC was -0.73 ± 0.55; that for QQRLWRNAWTDMARKVSTSR was 0.452 ± 1.2; that for QRARIINRKHV was 0.214 ± 0.74. QRFHFLNRL yielded an amyloid nucleation score of -0.411 ± 1.1. QRMACWYLDKLESLSKLACM registered an amyloid nucleation score of 0.612 ± 0.82. The value for QRVIAGPPNRAGKAYQALSR was 0.107 ± 0.53. As to QSISYR, the amyloid nucleation score is -0.956 ± 0.7. The value for QSLSLVVPDIVMIKTPN was “inactive”; that for QSPKQILWR was 1.11 ± 0.63; that for QSSSLHKHSFTHVVSQNEGG was 0.543 ± 0.26. With QTFMHSCEFRVN, the amyloid nucleation score is -0.347 ± 0.66. As to QTWLTLDQFVLTFGHKDNLG, the amyloid nucleation score came to 0.853 ± 0.51.

Take QVFGFYTMEKVYHVGGIASV: the amyloid nucleation score was -0.296 ± 0.3.

Substance QVGPVREHEHKVLAGLSMDW came in with an amyloid nucleation score of 0.498 ± 0.38.

QVLVYNDFRYFEFHRDVFLR: the amyloid nucleation score worked out at 8.45 ± 0.073. Substance QVNFNRRFNTQAIFNLSGVP returned an amyloid nucleation score of 0.947 ± 0.71. The value for QVRLVNWVCRM was 3.71 ± 0.059; that for QVTNRMRLRLMYR was 0.699 ± 0.37; that for QWKGSFSSV was -0.873 ± 1.1. The substance QWSDS displayed an amyloid nucleation score of -0.267 ± 0.41.

On to QYAIFRLSKTWIIHSMDKNA, for which the amyloid nucleation score is 0.269 ± 0.21. On to QYLFSGLEEMPIVTVLS, for which the amyloid nucleation score was -0.393 ± 0.31.

Regarding QYSHDRRFLPGMVHVRLFLE, the amyloid nucleation score stood at 0.662 ± 0.38. For the substance QYYFARIREFLSIQFIAWYC, the amyloid nucleation score turned out to be 0.172 ± 0.32.

On to RACFRVIYWFSLLDKVGETV, for which the amyloid nucleation score was -0.427 ± 1.1.

Regarding RAISVLPIMSVRAH, the amyloid nucleation score is 0.085 ± 0.25. The value for RALFSIHNTAEGLSERWAAL was 0.58 ± 1.2.

The substance RAQYYYICRWRYYTWPVPR came in with an amyloid nucleation score of -0.515 ± 1. With RARDIKWGCLFVCLTCMSTG, the amyloid nucleation score amounted to 3.76 ± 0.067. RARGAIYTVT: the amyloid nucleation score is -0.894 ± 2.4.

Turning to RAVGSDWGKVVFLLMNSEES, the amyloid nucleation score was 0.212 ± 0.31. The value for RCASHKTQYKRCGGVDEQEA was 1.96 ± 0.58; that for RCCIIDLFS was 4.87 ± 0.066; that for RCDRTGQRRALDRGSCFLVE was -0.46 ± 1.1. RCDSMSCTVYCEGNS registered an amyloid nucleation score of -1.03 ± 1.5. In turn, RCKELDCSPDSGITVTRSLI displayed an amyloid nucleation score of 1.12 ± 0.63. In turn, RCNDAFTFTCRPGWMWKWGK came in with an amyloid nucleation score of 1.75 ± 0.18. The result for RCNSSSIEWTVCILFDLLFY reads -0.122 ± 1; that for RCSGYRFRFTVRRTSLCFVK, -0.447 ± 1.2; that for RCVKASLYDGEYMKLMDGVM, -0.407 ± 0.45.
